Measured values from patent US20230094463A1, “ANTIBODIES THAT DISRUPT THE INTERACTION OF GAL3 AND INSULIN RECEPTOR OR INTEGRINS AND METHODS OF USE THEREOF” (TrueBinding, Inc., priority 2019, published 2023).

How the values were obtained:
[1] = tested on: DSS-induced IBD C57BL/6J mice; assay: DSS mouse model of chronic inflammatory bowel disease; assay type: in vivo; settings: 3% DSS mice, 10 mg/kg or 1 mg/kg
Experimental: A mouse model of chronic inflammatory bowel disease was implemented to study the effect of Gal-3 antibodies. […] Mice were allowed to rest for one week before initiating the treatment.
Mice were randomized into the four treatment groups: no dextran sulfate sodium salt (DSS), 3% DSS in water+PBS, 3% DSS+mTB001 (10 mg/kg), 3% DSS+mTB001 (1 mg/kg). DSS water mixture was given for five consecutive days followed by seven days of normal water for a total of three DSS cycles and two normal water cycles. Body weight, stool consistency, gross bleeding score, and Hemoccult score (Fisher, SK-61130) were monitored daily. At necropsy, blood, colon, jejunum, ileum, duodenum, and spleen were preserved and flash frozen. Plasma Inflammatory cytokines were measured using Multi-spot Assay Systems (MSD) Proinflammatory Panel 1 (mouse) kit (MSD, K15048D). RT-qPCR was performed on frozen colon samples. Briefly, the colon tissue was disrupted using Qiazol lysis buffer (Qiagen, 79306) and the Qiagen Tissue Lyser II (Qiagen, 85300). RNA was extracted using RNeasy mini kit (Qiagen, 74104). cDNA was synthesized with iScript Reverse Transcription Supermix (BioRad, 1708841) at BioRad C1000 touch thermal cycler (BioRad, 1851138). […]

[2] = biological target: T1, Gal3 peptides (SEQ ID NOs: 3-26) (Homo sapiens, UniProt P17931); assay: Gal3 peptide library binding ELISA (epitope mapping)
T1 construct: a library of 24 amino acid peptides representing portions of Gal3; purchased LifeTein custom order

[3] = tested on: HFD-fed Db/Db (Bks-Db) mice; assay: HFD-fed Db/Db mouse model of advanced type II diabetes
Source text: In order to investigate the effect of therapeutic anti-GAL-3 antibodies on a severe case of type II diabetes, a mouse model using High Fat Diet (HFD)-fed Db/Db mice was implemented. Four-weeks-old male Bks-Db mice (000642) obtained from Jackson lab were fed with 60% kcal HFD (Research Diet, 12492i) for eight weeks. Control animals (male C57BL6/J (000662), Jackson lab) were fed normal chow diet. […] Animals were randomized based on the body composition measured by employing EchoMRI-500™ (EchoMRI). […] Wild type animals were used as a control (Healthy) group. The animals were dosed for twelve weeks. […] The fasting blood glucose was measured as described in Example 15. Briefly, the mice were fasted for 4-6 hours in clean cages with water and no food. Blood from the tail was diluted 2.5 times before using HemoCue Glucose 201 Analyzer and cuvettes (Mercedes Scientific 110706) to measure the blood glucose level.

B1: TB001: Gal3-targeted Gal3-INSR blocking anti-Gal3 antibody; IMT001-4 used with human IgG4 isotype control (antibody, V domains shown)
VH: QVQLVQSGSELKKPGASVKVSCKASGYTFTNYGMNWVRQAPGQGLKWMGWINTNTGEPTYVEEFTGRFVFSLETSVSTAYLQISSLKAEDTAVYFCAPYDNFFAYWGQGTTVTVSS
VL: DIVLTQSPLSLPVTPGEPASISCRSSKSLLYKDGKTYLNWFLQKPGQSPQLLIYLMSTHASGVPDRFSGSGSGTDFTLKISRVEAEDVGVYYCQQLVDYPLTFGGGTKLEIK
For B1, which “DSS-induced reduction in the colon length” value [1] is on record?
Its value is “restored”.

And the “DSS-induced inflammation by circulating levels of IFN-gamma” value ([1]; plasma)?
The value was “reduced DSS-induced inflammation”.

And the “binding to Gal3 Peptide 5” value ([2]; Peptide 5 (SEQ ID NO: 7))?
The value was “bind”.

What about the “binding to Gal3 Peptide 6” value ([2]; Peptide 6 (SEQ ID NO: 8), amino acids 51-70 of Gal3, listed as IMT001 (TB001)) of the same molecule?
Its value is “bind and bound”.

And the “change in levels of fasting blood glucose” value ([3]; compared to PBS-treated groups)?
Its value is “lack of change”.

And the survival ([3]; dosed once weekly for twelve weeks)?
The survival was “significantly prolonged survival”.
